T1: TMEM147 of TMEM147-5aa-TEV-GFP-40aa(ALFA)-EMC2 (human, UniProt Q9BVK8 1-224)
T1 sequence: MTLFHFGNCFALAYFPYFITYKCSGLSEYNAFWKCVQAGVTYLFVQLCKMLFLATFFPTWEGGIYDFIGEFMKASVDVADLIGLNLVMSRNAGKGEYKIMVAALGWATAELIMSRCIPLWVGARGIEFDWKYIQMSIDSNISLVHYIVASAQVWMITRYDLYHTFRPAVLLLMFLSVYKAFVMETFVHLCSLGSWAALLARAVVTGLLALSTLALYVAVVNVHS

T2: NCLN of BOS (tNOMO) (human, UniProt Q969V3 43-563)
T2 sequence: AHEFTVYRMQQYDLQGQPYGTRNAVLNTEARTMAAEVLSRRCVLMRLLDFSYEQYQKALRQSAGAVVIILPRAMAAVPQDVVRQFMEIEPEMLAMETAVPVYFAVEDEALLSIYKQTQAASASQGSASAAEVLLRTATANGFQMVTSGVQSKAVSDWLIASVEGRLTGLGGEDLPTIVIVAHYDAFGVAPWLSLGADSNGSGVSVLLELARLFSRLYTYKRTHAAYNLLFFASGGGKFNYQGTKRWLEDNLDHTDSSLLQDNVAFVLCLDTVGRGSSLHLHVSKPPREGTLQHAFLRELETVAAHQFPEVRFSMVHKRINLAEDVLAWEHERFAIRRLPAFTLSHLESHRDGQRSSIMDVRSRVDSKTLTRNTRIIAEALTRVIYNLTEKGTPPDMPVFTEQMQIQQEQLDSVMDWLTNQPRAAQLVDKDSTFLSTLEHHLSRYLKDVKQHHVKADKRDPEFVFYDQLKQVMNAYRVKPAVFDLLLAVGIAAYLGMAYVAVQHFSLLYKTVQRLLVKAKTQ

T3: EMC1 (human (endogenous in Expi293), UniProt Q8N766 23-993)
T3 sequence: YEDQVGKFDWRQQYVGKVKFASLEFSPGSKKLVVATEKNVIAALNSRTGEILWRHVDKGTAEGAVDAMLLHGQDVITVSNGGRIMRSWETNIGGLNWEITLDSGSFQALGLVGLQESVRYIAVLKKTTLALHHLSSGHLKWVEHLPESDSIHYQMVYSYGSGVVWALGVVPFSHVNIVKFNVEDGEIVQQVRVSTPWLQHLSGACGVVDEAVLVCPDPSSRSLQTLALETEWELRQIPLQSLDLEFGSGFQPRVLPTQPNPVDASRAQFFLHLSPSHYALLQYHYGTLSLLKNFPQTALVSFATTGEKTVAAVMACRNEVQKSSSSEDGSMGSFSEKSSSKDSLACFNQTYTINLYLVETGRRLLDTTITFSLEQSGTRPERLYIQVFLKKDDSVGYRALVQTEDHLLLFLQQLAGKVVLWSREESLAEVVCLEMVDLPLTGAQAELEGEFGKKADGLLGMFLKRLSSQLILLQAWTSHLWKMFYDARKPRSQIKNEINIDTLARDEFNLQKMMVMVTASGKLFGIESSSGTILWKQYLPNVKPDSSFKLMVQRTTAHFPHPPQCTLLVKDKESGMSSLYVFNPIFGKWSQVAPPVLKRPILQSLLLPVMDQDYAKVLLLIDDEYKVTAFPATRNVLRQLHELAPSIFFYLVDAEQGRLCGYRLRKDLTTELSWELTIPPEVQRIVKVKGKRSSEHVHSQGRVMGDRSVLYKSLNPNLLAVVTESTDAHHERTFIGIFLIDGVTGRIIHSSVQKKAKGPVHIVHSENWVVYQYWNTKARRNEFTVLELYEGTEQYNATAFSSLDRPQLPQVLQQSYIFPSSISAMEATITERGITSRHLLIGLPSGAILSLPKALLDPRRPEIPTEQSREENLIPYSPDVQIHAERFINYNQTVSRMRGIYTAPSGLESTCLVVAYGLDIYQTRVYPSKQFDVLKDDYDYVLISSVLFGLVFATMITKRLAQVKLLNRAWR

B1: EMC5 (natural protein)
chain: MAPSLWKGLVGIGLFALAHAAFSAAQHRSYMRLTEKEDESLPIDIVLQTLLAFAVTCYGIVHIAGEFKDMDATSELKNKTFDTLRNHPSFYVFNHRGRVLFRPSDTANSSNQDALSSNTSLKLRKLESLRR
B2: TMEM147-GFP (natural protein)
chain: T1 sequence
B3: TMEM147 (from TMEM147-TEV-GFP, tag removed) (natural protein)
chain: T1 sequence
B4: NCLN (natural protein)
chain: T2 sequence

What was measured:
Assay in all cases: cryo-EM structure
[1] = molecular target: T1, TMEM147 of …
NCLN = molecular target: B4
NCLN of BOS (tNOMO) = molecular target: T2, NCLN of BOS (tNOMO)
EMC1 = molecular target: T3, EMC1

Binder: B1
- binding result [1]: binds

Binder: B2
- binding result (NCLN): binds

Binder: B3
- binding result (NCLN of BOS (tNOMO)): binds

Binder: B4
- binding result (EMC1): binds

From doi:10.1101/2023.11.28.569054 (bioRxiv, 2023)
